Experimental findings from doi:10.1101/2022.10.22.513346 (bioRxiv, 2022) are described below.

The target of experiment [1] is T1, N-terminal intrinsically disordered region (IDR) of ATG8 INTERACTING PROTEIN1 (ATI1) (Arabidopsis thaliana, UniProt O82775 1-180).
T1 sequence (looked up): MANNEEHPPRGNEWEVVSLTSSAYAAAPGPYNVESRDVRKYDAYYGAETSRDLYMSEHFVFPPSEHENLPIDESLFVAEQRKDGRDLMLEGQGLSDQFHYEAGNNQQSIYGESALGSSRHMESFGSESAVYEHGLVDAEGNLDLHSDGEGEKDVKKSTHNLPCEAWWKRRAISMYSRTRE
The experiment can be described thus: MST.

The target in experiment [2] is T1, N-terminal intrinsically disordered …. The experiment can be described thus: NMR titration.

No end group written: not given here.

B1: His6-SUMO-NcGN^AGO1 (N-coil plus globular N-domain of Arabidopsis AGO1), wild type N-coil (domain or fragment, Arabidopsis thaliana, UniProt O04379-2 172-335, looked up)
chain: SSSKAFKFPMRPGKGQSGKRCIVKANHFFAELPDKDLHHYDVTITPEVTSRGVNRAVMKQLVDNYRDSHLGSRLPAYDGRKSLYTAGPLPFNSKEFRINLLDEEVGAGGQRREREFKVVIKLVARADLHHLGMFLEGKQSDAPQEAAQVADIVSRELPTSRIRY
modifications: red maleimide fluorophore on Cys192 (Monolith NT Protein Labeling Kit Red - Maleimide)
For the molecule B1, the Kd – broadly, the free concentration of one partner at which half of the binding sites on the other are occupied at equilibrium, for simple one-to-one binding – in experiment [1] was determined as 11 µM.

B2: His6-SUMO-NcGN^AGO1 K178E (domain or fragment, Arabidopsis thaliana, UniProt O04379-2 172-335, looked up)
chain: SSSKAFEFPMRPGKGQSGKRCIVKANHFFAELPDKDLHHYDVTITPEVTSRGVNRAVMKQLVDNYRDSHLGSRLPAYDGRKSLYTAGPLPFNSKEFRINLLDEEVGAGGQRREREFKVVIKLVARADLHHLGMFLEGKQSDAPQEAAQVADIVSRELPTSRIRY
modifications: red maleimide fluorophore on Cys192 (Monolith NT Protein Labeling Kit Red - Maleimide)
With B2, binding in experiment [1] was put at a Kd of 47 µM.

B3: 15N-labeled AGO1 N-coil peptide, wild type (peptide)
peptide: SSSKAFKFPMRPGKGQSGKRC
modifications: also: 15N-labeled
With B3, in experiment [2], the binding result is recorded as “binds”.
